In paper PMC4490410:

Key:
Conditions in all cases: remark: other sources report otherwise
[1] = biological target: T1, DJ-1 (endogenous, human) (human (endogenous in human brain, M17D cells, iPSC-derived neurons)), Q99497; assay: cross-linking; intact M17D cells transiently transfected with untagged αS variants; 1 mM DSG or 1.75 mM DSP, 30 min 37 °C; cytosol (PBS) or PBS/1% TX-100 lysate, western blot (Syn1) densitometry; values of the fPD mutants from a meta-analysis of DSG and DSP experiments
T1 chain: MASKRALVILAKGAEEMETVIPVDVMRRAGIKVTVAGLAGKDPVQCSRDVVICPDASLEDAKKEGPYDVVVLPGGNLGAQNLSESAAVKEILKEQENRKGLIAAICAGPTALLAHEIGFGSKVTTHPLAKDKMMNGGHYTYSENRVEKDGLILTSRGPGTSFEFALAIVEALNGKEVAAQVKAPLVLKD

[2] = biological target: T1, DJ-1 (endogenous, human) (human …); assay: cross-linking; intact-cell crosslinking of minced, washed fresh human cortical biopsy; 1 mM DSG at increasing volume-to-protein ratio (DSP reduced by βME for total αS), 37 °C 30 min; then PBS ('cytosol') and TX-100 ('membrane') fractions, western blot
[3] = biological target: T1, DJ-1 (endogenous, human) (human …); assay: cross-linking; intact neurons differentiated from A53T patient iPSCs or the corrected isogenic line; DSG; sequential extraction, cytosol blotted with 2F12, C20, Syn1

Measured: stoichiometry N

B1: DJ-1 (endogenous, human), Q99497 1-189 (natural protein)
chain: MASKRALVILAKGAEEMETVIPVDVMRRAGIKVTVAGLAGKDPVQCSRDVVICPDASLEDAKKEGPYDVVVLPGGNLGAQNLSESAAVKEILKEQENRKGLIAAICAGPTALLAHEIGFGSKVTTHPLAKDKMMNGGHYTYSENRVEKDGLILTSRGPGTSFEFALAIVEALNGKEVAAQVKAPLVLKD
2: all assays above
